Experiment [1] concerns the target T1, rat calcitonin receptor (rat, UniProt P32214 25-516).
T1 construct: whole, on cells; Membranes of transiently transfected BHK tk'ts 13 cells (Assay VIII); also called rCTR
T1 sequence (looked up): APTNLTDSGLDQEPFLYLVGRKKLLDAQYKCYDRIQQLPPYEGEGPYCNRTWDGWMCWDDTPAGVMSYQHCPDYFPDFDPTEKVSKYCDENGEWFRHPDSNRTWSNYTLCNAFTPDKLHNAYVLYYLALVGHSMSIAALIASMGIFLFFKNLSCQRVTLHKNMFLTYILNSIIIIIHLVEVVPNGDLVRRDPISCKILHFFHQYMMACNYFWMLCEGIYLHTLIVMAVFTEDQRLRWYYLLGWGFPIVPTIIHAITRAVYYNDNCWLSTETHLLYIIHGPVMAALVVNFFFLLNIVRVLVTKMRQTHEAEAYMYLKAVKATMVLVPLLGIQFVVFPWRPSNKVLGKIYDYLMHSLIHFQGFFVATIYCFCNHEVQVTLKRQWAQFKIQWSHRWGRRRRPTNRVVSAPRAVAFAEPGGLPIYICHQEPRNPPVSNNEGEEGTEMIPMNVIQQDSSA
The experiment can be described thus: SPA competition with 125I-calcitonin, membranes of BHK cells with rat calcitonin receptor (Assay VIII).

The target in experiment [2] is T1, rat calcitonin receptor. The experiment can be described thus: ratio IC50 rat calcitonin receptor / IC50 rat amylin receptor (reference).
Experiment [3] has as its target T2, human calcitonin receptor (human, UniProt P30988 25-474).
T2 construct: whole, on cells; Membranes of a stably transfected BHK cell line (Assay VII); also called hCTR; hCT
T2 sequence (looked up): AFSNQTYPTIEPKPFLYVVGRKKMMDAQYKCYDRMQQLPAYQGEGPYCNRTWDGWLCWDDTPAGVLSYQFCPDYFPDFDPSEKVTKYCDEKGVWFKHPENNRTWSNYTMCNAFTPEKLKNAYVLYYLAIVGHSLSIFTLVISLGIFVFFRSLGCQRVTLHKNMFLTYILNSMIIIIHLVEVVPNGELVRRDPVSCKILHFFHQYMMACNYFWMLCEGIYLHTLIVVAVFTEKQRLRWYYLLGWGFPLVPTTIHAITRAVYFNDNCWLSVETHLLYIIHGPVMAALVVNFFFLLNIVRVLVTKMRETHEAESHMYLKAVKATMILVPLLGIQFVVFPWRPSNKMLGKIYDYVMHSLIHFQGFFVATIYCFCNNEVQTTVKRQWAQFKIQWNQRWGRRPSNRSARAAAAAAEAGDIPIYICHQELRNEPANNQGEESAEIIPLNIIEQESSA
The experiment can be described thus: ratio IC50 human calcitonin receptor / IC50 human amylin receptor (reference). In outline: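 Competition binding by SPA with cell membranes (35 ng/μL) and SPA beads in 50 mM Hepes pH 7.4 with 1 mM CaCl2, 5 mM MgCl2, 0.1% OA and 0.02% Tween20. Incubated 120 min at 25 °C with shaking, then counted.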

The target in experiment [4] is T3, rat amylin receptor (rat calcitonin receptor + rat RAMP 3) (rat, UniProt P32214 25-516; Q9JJ73 23-147).
T3 construct: whole, on cells; Membranes of transiently transfected BHK tk'ts 13 cells (Assay VI); also called rAmylin-R; rat amylin 3(a) receptor
T3 sequence (looked up) 1: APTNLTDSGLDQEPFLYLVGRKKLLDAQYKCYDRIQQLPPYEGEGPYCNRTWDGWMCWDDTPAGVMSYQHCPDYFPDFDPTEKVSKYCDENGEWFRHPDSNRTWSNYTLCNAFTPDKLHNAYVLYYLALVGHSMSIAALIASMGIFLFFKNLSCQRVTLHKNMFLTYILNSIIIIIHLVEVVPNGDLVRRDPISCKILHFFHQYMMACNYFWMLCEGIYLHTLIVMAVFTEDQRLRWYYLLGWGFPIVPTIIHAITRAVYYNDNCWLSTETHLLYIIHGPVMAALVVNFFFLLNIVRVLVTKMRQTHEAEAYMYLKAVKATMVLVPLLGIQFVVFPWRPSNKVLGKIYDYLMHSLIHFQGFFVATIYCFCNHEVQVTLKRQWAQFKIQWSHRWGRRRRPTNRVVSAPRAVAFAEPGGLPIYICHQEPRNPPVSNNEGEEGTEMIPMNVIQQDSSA
T3 sequence (looked up) 2: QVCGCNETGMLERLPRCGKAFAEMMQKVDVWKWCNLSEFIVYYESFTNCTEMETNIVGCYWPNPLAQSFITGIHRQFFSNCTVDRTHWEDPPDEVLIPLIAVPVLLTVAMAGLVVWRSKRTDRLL
The experiment in a line: SPA competition with 125I-rat amylin, membranes of BHK cells with rat calcitonin receptor + rat RAMP3 (Assay VI).

Results on 4 molecules are retold here after patent publication US20140087995A1 (published 2014).

What is called IC50 is the concentration that gives 50% inhibition.

Numbered stars: 1 amine (or outer) side, 2 acyl side, 3 side chain; on linkers, the order of the positions; unused ones are H or OH. Bridge positions count the residues as written; N and C are the ends. Side chains are listed from the residue outwards. Ends that are not written are not given here. * marks the point of attachment. C20 diacid = O=C(O)CCCCCCCCCCCCCCCCCCC(=O)*; γGlu = O=C(O)[C@H](CCC(=O)[*:2])N[*:1]

B1: N^ε1-[(4S)-4-carboxy-4-[[(4S)-4-carboxy-4-(19-carboxynonadecanoylamino)butanoyl]amino]butanoyl]-[Arg17,Pro21,Pro27,His34]-h-amylin (peptide)
peptide: K([γGlu-γGlu-C20 diacid])CNTATCATQRLANFLRHSSPNFGAIPSSTNVGHNTY-NH2
modifications: disulfide 2-7; N-terminus assumed
SMILES: CC[C@H](C)[C@H](NC(=O)[C@H](C)NC(=O)CNC(=O)[C@H](Cc1ccccc1)NC(=O)[C@H](CC(N)=O)NC(=O)[C@@H]1CCCN1C(=O)[C@H](CO)NC(=O)[C@H](CO)NC(=O)[C@H](Cc1c[nH]cn1)NC(=O)[C@H](CCCNC(=N)N)NC(=O)[C@H](CC(C)C)NC(=O)[C@H](Cc1ccccc1)NC(=O)[C@H](CC(N)=O)NC(=O)[C@H](C)NC(=O)[C@H](CC(C)C)NC(=O)[C@H](CCCNC(=N)N)NC(=O)[C@H](CCC(N)=O)NC(=O)[C@@H](NC(=O)[C@H](C)NC(=O)[C@@H]1CSSC[C@H](NC(=O)[C@@H](N)CCCCNC(=O)CC[C@H](NC(=O)CC[C@H](NC(=O)CCCCCCCCCCCCCCCCCCC(=O)O)C(=O)O)C(=O)O)C(=O)N[C@@H](CC(N)=O)C(=O)N[C@@H]([C@@H](C)O)C(=O)N[C@@H](C)C(=O)N[C@@H]([C@@H](C)O)C(=O)N1)[C@@H](C)O)C(=O)N1CCC[C@H]1C(=O)N[C@@H](CO)C(=O)N[C@@H](CO)C(=O)N[C@H](C(=O)N[C@@H](CC(N)=O)C(=O)N[C@H](C(=O)NCC(=O)N[C@@H](Cc1c[nH]cn1)C(=O)N[C@@H](CC(N)=O)C(=O)N[C@H](C(=O)N[C@@H](Cc1ccc(O)cc1)C(N)=O)[C@@H](C)O)C(C)C)[C@@H](C)O
notes: also called compound 86
B1: the IC50 in experiment [1] was found to be 352 nM; in experiment [4] it was 2.8 nM. In addition, the “Ratio rCT/rAmylin binding” value in experiment [2] turned out to be 126. Moreover, the “Ratio hCT/hAmylin binding” value in experiment [3] was determined as 159.

B2: N^ε1-[(4S)-4-carboxy-4-[[(4S)-4-carboxy-4-(19-carboxynonadecanoylamino)butanoyl]amino]butanoyl]-[Glu14,Arg17,Pro21,Pro27,Arg34,Glu35]-h-amylin (peptide)
peptide: K([γGlu-γGlu-C20 diacid])CNTATCATQRLAEFLRHSSPNFGAIPSSTNVGRETY-NH2
modifications: disulfide 2-7; N-terminus assumed
SMILES: CC[C@H](C)[C@H](NC(=O)[C@H](C)NC(=O)CNC(=O)[C@H](Cc1ccccc1)NC(=O)[C@H](CC(N)=O)NC(=O)[C@@H]1CCCN1C(=O)[C@H](CO)NC(=O)[C@H](CO)NC(=O)[C@H](Cc1c[nH]cn1)NC(=O)[C@H](CCCNC(=N)N)NC(=O)[C@H](CC(C)C)NC(=O)[C@H](Cc1ccccc1)NC(=O)[C@H](CCC(=O)O)NC(=O)[C@H](C)NC(=O)[C@H](CC(C)C)NC(=O)[C@H](CCCNC(=N)N)NC(=O)[C@H](CCC(N)=O)NC(=O)[C@@H](NC(=O)[C@H](C)NC(=O)[C@@H]1CSSC[C@H](NC(=O)[C@@H](N)CCCCNC(=O)CC[C@H](NC(=O)CC[C@H](NC(=O)CCCCCCCCCCCCCCCCCCC(=O)O)C(=O)O)C(=O)O)C(=O)N[C@@H](CC(N)=O)C(=O)N[C@@H]([C@@H](C)O)C(=O)N[C@@H](C)C(=O)N[C@@H]([C@@H](C)O)C(=O)N1)[C@@H](C)O)C(=O)N1CCC[C@H]1C(=O)N[C@@H](CO)C(=O)N[C@@H](CO)C(=O)N[C@H](C(=O)N[C@@H](CC(N)=O)C(=O)N[C@H](C(=O)NCC(=O)N[C@@H](CCCNC(=N)N)C(=O)N[C@@H](CCC(=O)O)C(=O)N[C@H](C(=O)N[C@@H](Cc1ccc(O)cc1)C(N)=O)[C@@H](C)O)C(C)C)[C@@H](C)O
With B2, the IC50 amounted to 452 nM in experiment [1] and 2.86 nM in experiment [4]. The “Ratio rCT/rAmylin binding” value in experiment [2] came to 158. Also, the “Ratio hCT/hAmylin binding” value in experiment [3] was 14.7.

B3: N^ε1-[(4S)-4-carboxy-4-[[(4S)-4-carboxy-4-(19-carboxynonadecanoylamino)butanoyl]amino]butanoyl]-[Arg17,Pro21,Pro27,Pro31,Pro34,Arg35]-h-amylin (peptide)
peptide: K([γGlu-γGlu-C20 diacid])CNTATCATQRLANFLRHSSPNFGAIPSSTPVGPRTY-NH2
modifications: disulfide 2-7; N-terminus assumed
SMILES: CC[C@H](C)[C@H](NC(=O)[C@H](C)NC(=O)CNC(=O)[C@H](Cc1ccccc1)NC(=O)[C@H](CC(N)=O)NC(=O)[C@@H]1CCCN1C(=O)[C@H](CO)NC(=O)[C@H](CO)NC(=O)[C@H](Cc1c[nH]cn1)NC(=O)[C@H](CCCNC(=N)N)NC(=O)[C@H](CC(C)C)NC(=O)[C@H](Cc1ccccc1)NC(=O)[C@H](CC(N)=O)NC(=O)[C@H](C)NC(=O)[C@H](CC(C)C)NC(=O)[C@H](CCCNC(=N)N)NC(=O)[C@H](CCC(N)=O)NC(=O)[C@@H](NC(=O)[C@H](C)NC(=O)[C@@H]1CSSC[C@H](NC(=O)[C@@H](N)CCCCNC(=O)CC[C@H](NC(=O)CC[C@H](NC(=O)CCCCCCCCCCCCCCCCCCC(=O)O)C(=O)O)C(=O)O)C(=O)N[C@@H](CC(N)=O)C(=O)N[C@@H]([C@@H](C)O)C(=O)N[C@@H](C)C(=O)N[C@@H]([C@@H](C)O)C(=O)N1)[C@@H](C)O)C(=O)N1CCC[C@H]1C(=O)N[C@@H](CO)C(=O)N[C@@H](CO)C(=O)N[C@H](C(=O)N1CCC[C@H]1C(=O)N[C@H](C(=O)NCC(=O)N1CCC[C@H]1C(=O)N[C@@H](CCCNC(=N)N)C(=O)N[C@H](C(=O)N[C@@H](Cc1ccc(O)cc1)C(N)=O)[C@@H](C)O)C(C)C)[C@@H](C)O
For the molecule B3, the IC50 in experiment [1] is 52.4 nM; in experiment [4], 0.381 nM. In addition, the “Ratio rCT/rAmylin binding” value in experiment [2] amounted to 137. Also, the “Ratio hCT/hAmylin binding” value in experiment [3] was found to be 48.6.

B4: N^ε1-[(4S)-4-carboxy-4-[[(4S)-4-carboxy-4-(19-carboxynonadecanoylamino)butanoyl]amino]butanoyl]-[Glu14,Arg17,Pro21,Pro27,Arg34]-h-amylin (peptide)
peptide: K([γGlu-γGlu-C20 diacid])CNTATCATQRLAEFLRHSSPNFGAIPSSTNVGRNTY-NH2
modifications: disulfide 2-7; N-terminus assumed
SMILES: CC[C@H](C)[C@H](NC(=O)[C@H](C)NC(=O)CNC(=O)[C@H](Cc1ccccc1)NC(=O)[C@H](CC(N)=O)NC(=O)[C@@H]1CCCN1C(=O)[C@H](CO)NC(=O)[C@H](CO)NC(=O)[C@H](Cc1c[nH]cn1)NC(=O)[C@H](CCCNC(=N)N)NC(=O)[C@H](CC(C)C)NC(=O)[C@H](Cc1ccccc1)NC(=O)[C@H](CCC(=O)O)NC(=O)[C@H](C)NC(=O)[C@H](CC(C)C)NC(=O)[C@H](CCCNC(=N)N)NC(=O)[C@H](CCC(N)=O)NC(=O)[C@@H](NC(=O)[C@H](C)NC(=O)[C@@H]1CSSC[C@H](NC(=O)[C@@H](N)CCCCNC(=O)CC[C@H](NC(=O)CC[C@H](NC(=O)CCCCCCCCCCCCCCCCCCC(=O)O)C(=O)O)C(=O)O)C(=O)N[C@@H](CC(N)=O)C(=O)N[C@@H]([C@@H](C)O)C(=O)N[C@@H](C)C(=O)N[C@@H]([C@@H](C)O)C(=O)N1)[C@@H](C)O)C(=O)N1CCC[C@H]1C(=O)N[C@@H](CO)C(=O)N[C@@H](CO)C(=O)N[C@H](C(=O)N[C@@H](CC(N)=O)C(=O)N[C@H](C(=O)NCC(=O)N[C@@H](CCCNC(=N)N)C(=O)N[C@@H](CC(N)=O)C(=O)N[C@H](C(=O)N[C@@H](Cc1ccc(O)cc1)C(N)=O)[C@@H](C)O)C(C)C)[C@@H](C)O
notes: also called compound 88
For B4, the IC50 in experiment [1] was 196 nM; in experiment [4], 2.31 nM. In experiment [2], the “Ratio rCT/rAmylin binding” value amounted to 84.9. Moreover, in experiment [3], the “Ratio hCT/hAmylin binding” value stood at 46.5.
